Assay results reported in paper PMC3996851, “Characterization of 3-phosphoglycerate kinase from Corynebacterium glutamicum and its impact on amino acid production” (BMC Microbiology, 2014).

How the values were obtained:
[1] = target: T1, PGK^His (C. glutamicum 3-phosphoglycerate kinase) (Corynebacterium glutamicum, UniProt Q01655); assay: coupled GAPDH/NADH assay, absorbance […] nm; format: biochemical
T1 construct: full length, N-terminal tenfold His tag (pET16b); expressed in E. coli BL21(DE3), Ni-NTA purified; 47 kDa monomer, 104 kDa homodimer

purified protein [2] = substrate: Nc1ncnc2c1ncn2[C@@H]1O[C@H](COP(=O)(O)OP(=O)(O)OP(=O)(O)O)[C@@H](O)[C@H]1O; assay: purified protein; format: biochemical, Corynebacterium glutamicum; conditions: gluconeogenic direction, co-substrate 3-PG, 2 mM Mg2+, 100 mM TEA-Cl pH 7.4, 30°C
purified protein [3] = substrate: O=C(O)[C@H](O)COP(=O)(O)O; assay: purified protein; format: biochemical, Corynebacterium glutamicum; conditions: gluconeogenic direction, co-substrate ATP, 2 mM Mg2+, 100 mM TEA-Cl pH 7.4, 30°C
[4] = target: the molecule itself; assay: SEC; gel filtration on a Bio-Prep SE-1000/17 column calibrated with BioRad standards; 100 mM TEA-Cl pH 7.4 with the optimal conditions for activity; two runs, 2 mg/ml PGK mixed with standards and 4 mg/ml PGK; single peak of about 104 kDa, fractions checked by enzyme activity (data not shown)

| Molecule | Ki [1] | Km (purified protein [2]) | Vmax (purified protein [2]) | kcat (purified protein [2]) | kcat/Km (purified protein [2]) | Km (purified protein [3]) | Vmax (purified protein [3]) | kcat (purified protein [3]) | kcat/Km (purified protein [3]) | stoichiometry N [4] |
| --- | --- | --- | --- | --- | --- | --- | --- | --- | --- | --- |
| Nc1ncnc2c1ncn2[C@@H]1O[C@H](COP(=O)(O)OP(=O)(O)O)[C@@H](O)[C@H]1O [ADP] | 100 µM |  |  |  |  |  |  |  |  |  |
| 3-phosphoglycerate kinase (PGK) from Corynebacterium glutamicum, N-terminally His-tagged (enzyme, Corynebacterium glutamicum ATCC 13032, UniProt Q01655 1-405, looked up, 3-phosphoglycerate kinase (EC 2.7.2.3) of Corynebacterium glutamicum ATCC 13032, encoded by cg1790/pgk; amplified from genomic DNA with primers from start to stop; monomer 47 kDa by SDS-PAGE; The methods say an N-terminal tenfold His tag (pET16b); also called PGK^His; PGKHis; source: E. coli BL21 (DE3) (pET16b-pgk), purified (Ni-NTA, desalted on Sephadex G25); not shown: His10, N-terminal, kept) MAVKTLKDLLDEGVDGRHVIVRSDFNVPLNDDREITDKGRIIASLPTLKALSEGGAKVIVMAHLGRPKGEVNEKYSLAPVAEALSDELGQYVALAADVVGEDAHERANGLTEGDILLLENVRFDPRETSKDEAERTAFAQELAALAADNGAFVSDGFGVVHRAQTSVYDIAKLLPHYAGGLVETEISVLEKIAESPEAPYVVVLGGSKVSDKIGVIEALAAKADKIIVGGGMCYTFLAAQGHNVQQSLLQEEMKATCTDLLARFGDKIVLPVDLVAASEFNKDAEKQIVDLDSIPEGWMSLDIGPESVKNFGEVLSTAKTIFWNGPMGVFEFAAFSEGTRGIAQAIIDATAGNDAFSVVGGGDSAASVRVLGLNEDGFSHISTGGGASLEYLEGKELPGVAILAQ |  | 110 µM | 150 U/mg | 130 s⁻¹ | 592000 M⁻¹ s⁻¹ | 260 µM | 220 U/mg | 191 s⁻¹ | 733000 M⁻¹ s⁻¹ | 2 |
